We go through one molecule from publication PMC4538381, “Activation of Relaxin Family Receptor 1 from Different Mammalian Species by Relaxin Peptide and Small-Molecule Agonist ML290” (Frontiers in Endocrinology, 2015).

“Also recorded” adds a separate entry of the source.

One assay deals with hRXFP1. Briefly: Direct HTRF cAMP assay, hRXFP1. The assay is classed as cell-based, human. The note with it: conditioned media from SQ10-transfected HEK293T cells, % of 10 μM Forskolin. On the procedure:
(§1) HEK293T cell transient transfections were performed using Lipofectamine 2000 transfection reagent (Life Technologies, Grand Island, NY, USA) according to the manufacturer’s instructions. Cells transiently expressing the RXFP1 receptors were used within 48 h of transfection. Each construct was tested at least three times. For cell-conditioned media stimulation, HEK293T cells were transfected with the rabbit RLN construct (SQ10) or an empty pCR3.1 vector, and cells were cultured for 24 h. The media was used to stimulate HEK293T cells transfected with the RXFP1 receptors.
(§2) Direct measurement of cAMP production was performed using the HTRF cAMP HiRange kit (CisBio, Bedford, MA, USA). HEK293T cells transiently transfected with different RXFP1 receptors were stimulated with various concentrations of RLN peptides or ML290 for 60 min at 37°C, 5% CO2, after which, two HTRF detection reagents (diluted according to assay kit directions in HTRF lysis buffer) were added. The plates were incubated for 60 min at room temperature, and the signal was read on a FLUOstar Omega (BMG Labtech, Cary, NC, USA) plate reader. cAMP levels were calculated according to the manufacturer’s instructions against a standard curve. Statistical processing of the data was performed using GraphPad Prism software.
(In TR-FRET formats the signal depends on donor and acceptor labels being close together.)

A further assay deals with G-RXFP1. The assay is described as follows: Direct HTRF cAMP assay, guinea pig G-RXFP1. Format: cell-based, guinea pig (Cavia porcellus). The note with it: conditioned media from SQ10-transfected HEK293T cells, % of 10 μM Forskolin. On the procedure:
The human, mouse, macaque, and pig RXFP1 cDNA constructs in baculovirus BacMam mammalian expression vector (Invitrogen, Carlsbad, CA, USA) were synthesized at the Eukaryotic Expression Group-Protein Expression laboratory (NCI, Frederick, MD, USA). The PCR primers for RT-PCR were designed to cover the full-length sequence of the open reading frame (ORF). PCR amplifications were performed with PfuUltra High-Fidelity DNA polymerase (Agilent Technologies, Santa Clara, CA, USA). Guinea pig RXFP1 (G-RXFP1) was amplified from guinea pig ovarian cDNA (Zyagen, San Diego, CA, USA). Rabbit RXFP1 (R1-RXFP1 and R2-RXFP1) cDNAs were amplified from rabbit uterus cDNA (Zyagen). All cloning was performed using the In-Fusion® HD Cloning Kit (Clontech Laboratories, Mountain View, CA, USA). Rabbit and guinea pig RXFP1s were cloned into pCR3.1 mammalian expression vector (Invitrogen). […]
Direct measurement of cAMP production was performed using the HTRF cAMP HiRange kit (CisBio, Bedford, MA, USA). […] The plates were incubated for 60 min at room temperature, and the signal was read on a FLUOstar Omega (BMG Labtech, Cary, NC, USA) plate reader. cAMP levels were calculated according to the manufacturer’s instructions against a standard curve. […]

Another assay has as its system R1-RXFP1 and R2-RXFP1. The assay is described as follows: Direct HTRF cAMP assay, rabbit R1-RXFP1 and R2-RXFP1. Format: cell-based, European rabbit (Oryctolagus cuniculus). Particulars: HTRF. On the procedure: The human, mouse, macaque, and pig RXFP1 cDNA constructs in baculovirus BacMam mammalian expression vector (Invitrogen, Carlsbad, CA, USA) were synthesized at the Eukaryotic Expression Group-Protein Expression laboratory (NCI, Frederick, MD, USA). The PCR primers for RT-PCR were designed to cover the full-length sequence of the open reading frame (ORF). PCR amplifications were performed with PfuUltra High-Fidelity DNA polymerase (Agilent Technologies, Santa Clara, CA, USA). Guinea pig RXFP1 (G-RXFP1) was amplified from guinea pig ovarian cDNA (Zyagen, San Diego, CA, USA). Rabbit RXFP1 (R1-RXFP1 and R2-RXFP1) cDNAs were amplified from rabbit uterus cDNA (Zyagen). All cloning was performed using the In-Fusion® HD Cloning Kit (Clontech Laboratories, Mountain View, CA, USA). Rabbit and guinea pig RXFP1s were cloned into pCR3.1 mammalian expression vector (Invitrogen). In order to study RXFP1 surface expression, rabbit cDNAs were cloned into pcDNA3.1™/Zeo+ mammalian expression vector (Invitrogen), which contained an N-terminal FLAG-tag and a bovine prolactin signal sequence (3). […] To make chimeric clones, the human, guinea pig, and rabbit plasmid were used as templates to produce PCR amplicons, which were then used for overlapping PCR and subsequent cloning with the In-Fusion kit. The chimeric guinea pig/human GH-RXFP1 construct contains guinea pig RXFP1 cDNA (G-RXFP1, 1–1499 bp) encoding the ectodomain, TM1, TM2, and part of TM3 (amino acids 1–499 of G-RXFP1), and human RXFP1 (hRXFP1, 1509–2274 bp) encoding TM3 to the C-terminal tail of the receptor (amino acids 503–757 of hRXFP1) (Figure 1A). The recombinant chimeric human–rabbit HR-RXFP1 was made with the 5′-part of the hRXFP1 sequence (1–972 bp, LDLa-LRR9, 1–324 aa), with the remainder being the rabbit RXFP1 sequence (973–2277 bp, LRR9-C-terminal tail, 325–759 aa) (Figure 1A). The recombinant chimeric rabbit–human R1H-RXFP1 or R2H-RXFP1 contains the N-terminal rabbit RXFP1 sequence (1–972 bp for R1-RXFP1 or 975 bp for R2-RXFP1), with the remaining sequence being hRXFP1 (973–2274) (Figure 1A). R1- and R2-RXFP1 denote two variants of rabbit RXFP1 cDNA. All numbers correspond to the full-length cDNAs with the first nucleotide of the ORF.
as §1, §2

B1: SQ10: rabbit RLN expressed from SQ10 cDNA in HEK293T cells, used as conditioned medium (protein)
chain: RVTYEWMMENVKICRNDFVRTAIEVCGHVHLERESPSPENPFLSSGPAAETVPSSIKKDAENANTMLESIPNLPQELTATLFEKQPSKLYLQYLPTLKKSNVSFEEFKKIIQNIQRGVQGSSASESNTFSRKKRQFSESLPEECCKYGCPRYYLLMYC
Regarding B1, the “cAMP response to SQ10 conditioned medium” value is “responded to SQ10 treatment with cAMP production; also recorded: activated human and guinea pig receptors and thus was fully functional” in the assay on hRXFP1; “responded to SQ10 treatment with cAMP production; also recorded: activated human and guinea pig receptors and thus was fully functional” in the assay with G-RXFP1; “No response was recorded; also recorded: Neither of the two rabbit RXFP1 variants responded” with R1-RXFP1 and R2-RXFP1 (R1- or R2-RXFP1, conditioned media from SQ10-transfected HEK293T cells, % of 10 μM Forskolin). Moreover, the “statistical significance of response versus hRXFP1 or G-RXFP1” value with R1-RXFP1 and R2-RXFP1 (R1-RXFP1, SQ10 conditioned media) is listed as “statistically significant (p < 0.0001) compared to hRXFP1 or G-RXFP1”.
